Biological target: Myc-GPI-TSHR-ecd (TSH receptor ectodomain, residues 1-412, linked to a GPI anchor, Myc-tagged) (human) (UniProt P16473)
Assay: FRET or BRET; sensitized emission FRET on transfected HEK 293 cells fixed with 4% paraformaldehyde; anti-HA FITC (donor) and anti-Myc Cy3 (acceptor), or GFP (donor) and anti-Myc Cy3 (acceptor) for full-length receptors; pFRET software

Substance: HA-GPI-TSHR-ecd (TSH receptor ectodomain, residues 1-412, linked to a GPI anchor, HA-tagged) (from UniProt P16473 21-412) (domain or fragment)
- FRET efficiency: 8 to 10%

Source: PMC2829087
